# In article PMC10821498, “Radiosynthesis Standardization and Preclinical Assessment of the [^68Ga]Ga-DOTA-Ubiquicidin29-41: A Translational Study Targeting Differential Diagnosis of Infectious Processes” (Pharmaceuticals, 2023):
# Where a SMILES comes first, the peptide text is derived from it. The star is where a group is joined. DOTA = O=C(O)CN1CCN(CC(=O)O)CCN(CC(=O)*)CCN(CC(=O)O)CC1
# Key:
# [1] = tested on: methicillin-resistant Staphylococcus aureus (MRSA); assay type: in vivo; conditions: healthy and MRSA-infected BALB/c mice, 30 and 60 min after i.v. administration, n = 5 per time point
# Method: The MRSA bacterial strain was prepared in two steps: pre-inoculum and inoculum. In the pre-inoculum phase, 10 mL of Luria Bertani (LB) medium and 20 μL of ampicillin (500 mg/mL) were added to MRSA (50–100 IU). The mixture was maintained overnight at 37 °C and under shaking at 200× g. In the inoculum phase, 20 mL of LB medium, 500 μL of the pre-inoculum preparation content and 40 μL of ampicillin (500 mg/mL) were combined. This new product was maintained at 37 °C and under shaking at 200× g until it reached an absorbance of 0.8–1.0. This quantification was carried out with an LGI-VS-721N spectrophotometer (LGI Scientific, São Paulo, Brazil). At this point, the content was manually homogenized and 1 mL samples were separated for centrifugation at 14,000× g for 5 min. Supernatants were removed and pellets were resuspended in 100 μL of PBS containing 10^9 CFU.
# Male BALB/c mice aged between 6 and 8 weeks were used in this work. […]
# For the ex vivo biodistribution study, [^68Ga]Ga-DOTA-UBI29-41 was administered intravenously through the caudal vein of the mice (~5 MBq/100 μL) in control and infected animals. […] Organs were removed and weighed, and the radioactivity was quantified in a gamma counter. Percentages of injected activity per gram of organ (% IA/g) were determined, as well as the ratio of target (right tight muscle) to non-target (left tight muscle).
# [2] = assay type: physicochemical
# Method: The n-octanol/water partition coefficient (P) of [^68Ga]Ga-DOTA-UBI29-41 was determined using the shake-flask method described elsewhere. A 50 µL aliquot (~2 MBq) of the final product was added to a mixture of n-octanol/water (1:1). The tubes containing the mixture were shaken and centrifugated at 5000× g for 5 min in a Minispin® plus centrifuge (Eppendorf AG, Hamburg, Germany). Then, they were let to rest until complete separation of the phases occurred. After that, samples of 100 μL were taken from each phase. Radioactivity in the aliquots was quantified in an automated Wizard^2™ 3” 2480 gamma counter (PerkinElmer, Shelton, CT, USA). From there, the logarithm of P was determined from the ratio of the activity in organic phase to that in the aqueous phase.
# rodent serum proteins = test: in vitro; assay type: in vitro ADME
# Method: (§1) SPB was determined via incubation of 50 μL of [^68Ga]Ga-DOTA-UBI29-41 with 450 μL of rodent serum at 37 °C and under gentle shaking at 450× g. At 30 and 60 min, proteins were separated via ultracentrifugation at 14,000× g using Amicon® 10 kDa filters (Merck Millipore, São Paulo, Brazil). The supernatant and pellet were conditioned in microtubes and their radioactivity was quantified in an automated gamma counter. The percentage of SPB was defined by the ratio between the radioactivity in the pellet and the total radioactivity, given by the sum of the radioactivities of the pellet and the supernatant.
# in vitro = in vitro ADME, rodent; conditions: rodent, serum
# Method: as §1
smiles,measurement,setting,value
"CSCC[C@H](NC(=O)[C@H](CCCNC(=N)N)NC(=O)[C@H](CCCNC(=N)N)NC(=O)[C@H](CCCCN)NC(=O)[C@H](C)NC(=O)[C@H](CCCNC(=N)N)NC(=O)CNC(=O)[C@@H](NC(=O)CN1CCN(CC(=O)O)CCN(CC(=O)O)CCN(CC(=O)O)CC1)[C@@H](C)O)C(=O)N[C@@H](CCC(N)=O)C(=O)N[C@@H](Cc1ccc(O)cc1)C(=O)N[C@@H](CC(N)=O)C(=O)N[C@@H](CCCNC(=N)N)C(=O)N[C@@H](CCCNC(=N)N)C(=O)O [[^68Ga]Ga-DOTA-UBI29-41, [^68Ga]Ga-DOTA-Ubiquicidin29-41, metal not drawn] ({DOTA}-TGRAKRRMQYNRR-OH)",Blood clearance and excretion,[1],fast blood depuration with urinary excretion
same,Log P,[2],–3.63 ± 0.17
same,Binding to rodent serum proteins (SPB),rodent serum proteins,60%
same,fraction unbound at 30 min,in vitro,0.398
same,fraction unbound at 60 min,in vitro,0.559
